Test results published in patent US20240092930A1 (MABWELL SHANGHAI BIOSCIENCE, published 2024).
One block for each binder: values may come before it.

Tests used:
[1] = target: T1, recombinant mouse Trop-2-his protein (Cat.: 50922-M08H, Beijing Yiqiao Shenzhou Science and Technology Co., … (mouse, UniProt Q8BGV3 25-270)); assay: ELISA, coated mouse Trop-2-his 1 µg/ml
T1 construct: Bought protein; not shown: his tag
T1 sequence (looked up): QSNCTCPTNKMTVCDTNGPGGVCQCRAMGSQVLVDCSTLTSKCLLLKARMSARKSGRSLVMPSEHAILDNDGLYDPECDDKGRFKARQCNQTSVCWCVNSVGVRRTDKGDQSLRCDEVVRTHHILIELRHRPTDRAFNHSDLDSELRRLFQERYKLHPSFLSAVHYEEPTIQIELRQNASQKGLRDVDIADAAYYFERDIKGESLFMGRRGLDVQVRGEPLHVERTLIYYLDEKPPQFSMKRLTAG
Experimental: (§1) Washed with PBS 3 times, the plates were blocked with the added 5% BSA PBS at 37° C. for 60 min, and then washed 3 times with PBST. Different concentrations of h23-12 (serial dilutions of 14 concentrations obtained through 3-fold serially diluting a solution with an initial concentration of 10 μg/ml), h4-3 (serial dilutions of 12 concentrations obtained through 3-fold serially diluting a solution with an initial concentration of 3 μg/ml), and Sacituzumab (serial dilutions of 12 concentrations obtained through 3-fold serially diluting a solution with an initial concentration of 3 μg/ml) were added into the plates, with each concentration provided in a parallel well. The plates were incubated at 37° C. for 60 min, and then were washed 4 times with PBST. 1:5000 dilution of H1RP-anti-human Fc (Cat.: 109-035-098, Jackson ImmunoResearch) was added into the plates for incubation at 37° C. for 30 min. Afterwards, the plates were washed with PBST 4 times, and TMB substrate was added for color development at 37° C. for 10 min. Then 2M HCl was added to stop reaction; and absorbances at 450 nm and at 630 nm (as reference wavelength) were read, and A450 nm-630 nm values of the wells in the plates were recorded.

[2] = target: T2, recombinant human Trop-2-his protein (ACCESSION NO.: NP_002344.2, AA 1-274) (human, UniProt P09758 27-274); assay: ELISA, coated human Trop-2-his 1 µg/ml
T2 construct: range 27-274; also called recombinant human Trop-2 protein; recombinant human Trop-2 extracellular domain; not shown: his tag
T2 sequence (looked up): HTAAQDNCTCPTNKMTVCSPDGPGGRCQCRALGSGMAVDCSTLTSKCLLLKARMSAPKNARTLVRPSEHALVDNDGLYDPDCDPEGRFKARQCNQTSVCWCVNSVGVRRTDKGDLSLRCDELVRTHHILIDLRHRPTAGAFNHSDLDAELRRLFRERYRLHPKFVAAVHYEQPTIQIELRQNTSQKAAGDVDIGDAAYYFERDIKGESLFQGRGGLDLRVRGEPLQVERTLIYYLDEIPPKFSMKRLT
Experimental: as §1

[3] = target: T3, human Trop-2 on the surface of cells (CHO/Trop-2 cells; BxPC-3 cells; NCI-N87 cells) (human, UniProt P09758 27-323); assay: cell-based or functional assay
T3 sequence (looked up): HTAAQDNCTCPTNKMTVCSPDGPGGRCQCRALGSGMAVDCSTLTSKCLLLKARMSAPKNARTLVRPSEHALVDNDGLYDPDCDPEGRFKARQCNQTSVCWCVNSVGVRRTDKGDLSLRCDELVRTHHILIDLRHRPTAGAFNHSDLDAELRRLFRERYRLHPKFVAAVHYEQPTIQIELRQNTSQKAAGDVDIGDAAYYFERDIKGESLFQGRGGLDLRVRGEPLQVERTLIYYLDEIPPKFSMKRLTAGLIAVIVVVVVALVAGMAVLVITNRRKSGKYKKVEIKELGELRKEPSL

[4] = target: T2, recombinant human Trop-2-his protein …; assay: BLI, naked antibody on AHC sensor, Trop-2-his 60 nM, 300 s binding
Experimental: Affinities of the antibodies were determined by an assay including capturing Fc fragments of the antibodies with anti-human IgG Fc capture (AHC) biosensors using Octet QKe system instrument from Fortebio.
For the assay, SN38-labeled antibodies prepared as described above: h23-12-SN38, ch4-3-SN38, ch11-4-SN38, and positive control antibody Sacituzumab-SN38, as well as naked antibodies h23-12, ch4-3, ch11-4, and positive control antibody Sacituzumab were diluted to 4 μg/ml with PBS and allowed to flow through the surface of an AHC biosensor (Cat.: 18-0015, PALL) for 120 s. Recombinant human Trop-2-his protein (ACCESSION NO.: NP_002344.2, AA 1-274) was used as a mobile phase, and its concentration was 60 nM. The binding time was 300 s and the dissociation time was 300 s. When the assay was finished, data from which the response value of blank control had been deducted were fitted to a 1:1 Langmuir binding model using software, and then kinetic constants for antigen-antibody binding were calculated.

[5] = target: T2, recombinant human Trop-2-his protein …; assay: BLI, antibody on AHC sensor, Trop-2-his 60 nM
In short: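 Octet BLI: humanized antibodies at 4 μg/ml in PBS captured 120 s on anti-human IgG Fc (AHC) biosensors, then exposed to 60 nM Trop-2-his (AA 1-274) for 100 s association and 300 s dissociation. Blank-subtracted data fitted to 1:1 Langmuir model for kinetic constants.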

binding result [1]: no binding (tested: up to 3 µg/ml) | EC50 [2]: 0.0703 nM | Internalization percentage, 1 h, NCI-N87 cells, FACS [3]: 49.3% | Kd [4]: 0.583 nM | Kd [5]: 0.723 nM
B1: Sacituzumab (antibody, human IgG1, kappa, V domains shown)
VH: QVQLQQSGSELKKPGASVKVSCKASGYTFTNYGMNWVKQAPGQGLKWMGWINTYTGEPTYTDDFKGRFAFSLDTSVSTAYLQISSLKADDTAVYFCARGGFGSSYWYFDVWGQGSLVTVSS
VL: DIQLTQSPSSLSASVGDRVSITCKASQDVSIAVAWYQQKPGKAPKLLIYSASYRYTGVPDRFSGSGSGTDFTLTISSLQPEDFAVYYCQQHYITPLTFGAGTKVEIKR
notes: expressed in HEK293; also called control antibody Sacituzumab; Saituzumab

binding result [1]: no binding (tested: up to 10 µg/ml) | EC50 [2]: 0.0473 nM | Internalization percentage, 1 h, NCI-N87 cells, FACS [3]: 54% | Kd [4]: 0.507 nM | Kd [5]: 0.502 nM
B2: h23-12-25 (antibody, human IgG1, kappa, V domains shown)
VH: QVQLVQSGAEVKKPGASVKVSCKASGYTFTSYWMHWVRQAPGQGLEWMGEITPSDNYGSYNQKFKGRVTITRDTSTSTAYMELSSLRSEDTAVYYCARGHGNYVSFDYWGQGTLVTVSS
VL: DIQMTQSPSSLSASVGDRVTITCRASQDISNYLNWYQQKPGKAPKLLIYYTSRLESGVPSRFSGSGSGTDFTLTISSLQPEDFATYFCQQGYTLPPYTFGQGTKLEIKR
notes: also called h32-12
